{"source": "patent US20190134153A1", "about": "“IMMUNOMODULATORY EFFECT OF INHALED KINASE INHIBITOR PEPTIDES IN LUNG” (MOERAE MATRIX, INC., priority 2017, published 2019)", "assay_in_all_cases": "Kinase Profiling Assay", "format_in_all_cases": "biochemical", "conditions_in_all_cases": "100 μM", "key": {"CK2(h)": {"target": "CK2(h) (Homo sapiens, UniProt P68400)", "sequence (P68400 whole entry)": "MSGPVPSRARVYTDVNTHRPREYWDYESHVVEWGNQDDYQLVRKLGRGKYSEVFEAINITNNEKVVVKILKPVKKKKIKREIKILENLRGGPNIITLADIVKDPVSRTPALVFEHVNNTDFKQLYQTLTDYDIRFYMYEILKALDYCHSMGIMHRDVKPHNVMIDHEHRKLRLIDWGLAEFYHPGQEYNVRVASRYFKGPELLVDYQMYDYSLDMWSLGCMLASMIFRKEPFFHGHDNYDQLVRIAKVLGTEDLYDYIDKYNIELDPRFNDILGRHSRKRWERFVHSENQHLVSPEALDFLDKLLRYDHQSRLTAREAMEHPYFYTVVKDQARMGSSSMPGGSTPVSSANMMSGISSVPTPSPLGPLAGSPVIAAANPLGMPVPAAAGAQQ", "sequence (P67870 whole entry partner)": "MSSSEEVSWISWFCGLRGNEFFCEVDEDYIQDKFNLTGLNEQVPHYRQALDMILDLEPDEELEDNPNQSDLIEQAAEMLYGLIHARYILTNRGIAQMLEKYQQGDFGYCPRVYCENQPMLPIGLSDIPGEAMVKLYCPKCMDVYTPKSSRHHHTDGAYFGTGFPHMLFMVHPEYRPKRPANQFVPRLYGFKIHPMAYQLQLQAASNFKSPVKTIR"}, "LOK(h)": {"target": "LOK(h) (Homo sapiens, UniProt O94804)", "sequence (O94804 whole entry)": "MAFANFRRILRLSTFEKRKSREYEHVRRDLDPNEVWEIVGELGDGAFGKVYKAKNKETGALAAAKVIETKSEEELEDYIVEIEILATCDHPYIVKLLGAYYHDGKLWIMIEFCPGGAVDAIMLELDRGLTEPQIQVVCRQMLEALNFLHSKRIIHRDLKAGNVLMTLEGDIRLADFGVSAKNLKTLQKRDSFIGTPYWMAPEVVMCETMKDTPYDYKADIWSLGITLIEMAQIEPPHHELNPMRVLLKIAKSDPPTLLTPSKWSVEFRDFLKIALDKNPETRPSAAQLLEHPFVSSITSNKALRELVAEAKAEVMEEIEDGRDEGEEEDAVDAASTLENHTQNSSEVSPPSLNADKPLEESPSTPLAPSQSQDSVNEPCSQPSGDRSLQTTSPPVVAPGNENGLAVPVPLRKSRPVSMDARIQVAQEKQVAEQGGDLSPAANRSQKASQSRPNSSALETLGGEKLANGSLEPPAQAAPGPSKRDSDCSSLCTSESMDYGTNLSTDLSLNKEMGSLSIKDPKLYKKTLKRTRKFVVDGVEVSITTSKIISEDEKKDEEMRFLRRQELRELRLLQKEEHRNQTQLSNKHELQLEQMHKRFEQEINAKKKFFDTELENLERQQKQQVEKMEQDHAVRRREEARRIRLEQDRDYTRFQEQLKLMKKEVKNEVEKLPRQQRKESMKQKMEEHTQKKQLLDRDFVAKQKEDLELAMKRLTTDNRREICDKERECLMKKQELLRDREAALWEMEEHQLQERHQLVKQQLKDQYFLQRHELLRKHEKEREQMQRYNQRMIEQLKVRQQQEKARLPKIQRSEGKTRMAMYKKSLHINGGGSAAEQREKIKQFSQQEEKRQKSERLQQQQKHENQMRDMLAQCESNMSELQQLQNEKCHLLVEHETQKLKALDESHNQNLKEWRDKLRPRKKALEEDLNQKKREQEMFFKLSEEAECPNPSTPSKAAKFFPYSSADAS"}, "MAPKAP-K2(h)": {"target": "MAPKAP-K2(h) (Homo sapiens, UniProt P49137)", "sequence (P49137 whole entry)": "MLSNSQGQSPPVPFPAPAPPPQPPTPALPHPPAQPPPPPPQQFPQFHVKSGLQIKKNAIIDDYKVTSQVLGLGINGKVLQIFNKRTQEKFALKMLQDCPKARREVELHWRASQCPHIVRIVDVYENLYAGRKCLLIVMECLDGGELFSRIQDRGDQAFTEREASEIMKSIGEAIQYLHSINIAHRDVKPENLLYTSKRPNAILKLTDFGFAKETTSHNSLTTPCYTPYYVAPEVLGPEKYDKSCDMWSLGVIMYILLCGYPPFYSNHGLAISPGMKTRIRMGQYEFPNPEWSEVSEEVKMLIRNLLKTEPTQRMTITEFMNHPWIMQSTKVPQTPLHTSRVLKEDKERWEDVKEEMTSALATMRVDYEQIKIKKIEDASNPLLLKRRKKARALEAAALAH"}, "mTOR/FKBP12(h)": {"target": "mTOR/FKBP12(h) (Homo sapiens, UniProt P42345)", "sequence (P42345 1362-2549 limits assumed)": "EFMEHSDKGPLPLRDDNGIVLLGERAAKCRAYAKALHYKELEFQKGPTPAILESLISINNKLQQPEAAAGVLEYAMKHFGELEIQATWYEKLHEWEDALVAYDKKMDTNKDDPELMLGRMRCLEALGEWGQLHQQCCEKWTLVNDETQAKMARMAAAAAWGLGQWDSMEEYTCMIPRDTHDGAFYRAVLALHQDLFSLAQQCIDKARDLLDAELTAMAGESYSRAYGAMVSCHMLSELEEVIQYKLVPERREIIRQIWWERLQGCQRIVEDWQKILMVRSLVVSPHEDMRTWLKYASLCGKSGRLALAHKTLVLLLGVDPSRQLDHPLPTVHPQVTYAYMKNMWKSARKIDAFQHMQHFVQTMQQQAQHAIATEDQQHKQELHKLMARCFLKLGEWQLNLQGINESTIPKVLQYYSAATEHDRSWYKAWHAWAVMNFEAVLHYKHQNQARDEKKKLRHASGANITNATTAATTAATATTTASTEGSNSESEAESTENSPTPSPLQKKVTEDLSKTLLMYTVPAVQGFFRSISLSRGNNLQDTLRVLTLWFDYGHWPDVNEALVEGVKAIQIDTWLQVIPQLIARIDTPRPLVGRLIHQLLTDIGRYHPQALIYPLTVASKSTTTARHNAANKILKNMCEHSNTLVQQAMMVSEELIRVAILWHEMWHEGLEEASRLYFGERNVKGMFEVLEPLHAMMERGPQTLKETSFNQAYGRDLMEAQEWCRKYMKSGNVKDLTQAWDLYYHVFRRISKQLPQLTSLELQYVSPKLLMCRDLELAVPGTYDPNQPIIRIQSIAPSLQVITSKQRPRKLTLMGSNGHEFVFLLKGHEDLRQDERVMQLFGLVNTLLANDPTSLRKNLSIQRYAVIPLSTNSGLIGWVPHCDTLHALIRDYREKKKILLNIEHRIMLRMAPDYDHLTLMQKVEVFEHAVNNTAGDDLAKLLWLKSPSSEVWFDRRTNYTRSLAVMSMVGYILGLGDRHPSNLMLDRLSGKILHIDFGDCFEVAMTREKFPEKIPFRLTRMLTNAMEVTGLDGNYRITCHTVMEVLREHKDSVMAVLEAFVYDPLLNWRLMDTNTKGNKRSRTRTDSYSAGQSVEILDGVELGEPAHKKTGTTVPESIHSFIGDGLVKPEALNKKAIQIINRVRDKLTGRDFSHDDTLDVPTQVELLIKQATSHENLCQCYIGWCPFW"}, "PAK4(h)": {"target": "PAK4(h) (Homo sapiens, UniProt O96013)", "sequence (O96013 whole entry)": "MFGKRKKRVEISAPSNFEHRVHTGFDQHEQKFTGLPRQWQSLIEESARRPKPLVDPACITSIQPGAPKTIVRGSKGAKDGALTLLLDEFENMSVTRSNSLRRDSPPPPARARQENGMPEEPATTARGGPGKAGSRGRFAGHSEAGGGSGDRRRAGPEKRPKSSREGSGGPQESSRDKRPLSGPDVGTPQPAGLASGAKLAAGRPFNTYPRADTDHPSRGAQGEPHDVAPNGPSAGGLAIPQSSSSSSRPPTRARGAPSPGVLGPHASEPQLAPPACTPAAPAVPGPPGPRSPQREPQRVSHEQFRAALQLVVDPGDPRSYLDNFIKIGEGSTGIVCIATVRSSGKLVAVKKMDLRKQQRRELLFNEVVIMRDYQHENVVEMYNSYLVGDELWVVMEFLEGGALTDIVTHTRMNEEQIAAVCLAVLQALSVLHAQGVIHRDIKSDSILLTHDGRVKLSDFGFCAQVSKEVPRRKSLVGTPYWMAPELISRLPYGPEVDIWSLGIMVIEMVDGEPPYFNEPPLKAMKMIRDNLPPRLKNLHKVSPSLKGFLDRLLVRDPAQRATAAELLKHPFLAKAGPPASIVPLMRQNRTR"}, "PKCι(h)": {"target": "T1, PKCι(h) (Homo sapiens, UniProt P41743)", "T1 sequence (P41743 1-596)": "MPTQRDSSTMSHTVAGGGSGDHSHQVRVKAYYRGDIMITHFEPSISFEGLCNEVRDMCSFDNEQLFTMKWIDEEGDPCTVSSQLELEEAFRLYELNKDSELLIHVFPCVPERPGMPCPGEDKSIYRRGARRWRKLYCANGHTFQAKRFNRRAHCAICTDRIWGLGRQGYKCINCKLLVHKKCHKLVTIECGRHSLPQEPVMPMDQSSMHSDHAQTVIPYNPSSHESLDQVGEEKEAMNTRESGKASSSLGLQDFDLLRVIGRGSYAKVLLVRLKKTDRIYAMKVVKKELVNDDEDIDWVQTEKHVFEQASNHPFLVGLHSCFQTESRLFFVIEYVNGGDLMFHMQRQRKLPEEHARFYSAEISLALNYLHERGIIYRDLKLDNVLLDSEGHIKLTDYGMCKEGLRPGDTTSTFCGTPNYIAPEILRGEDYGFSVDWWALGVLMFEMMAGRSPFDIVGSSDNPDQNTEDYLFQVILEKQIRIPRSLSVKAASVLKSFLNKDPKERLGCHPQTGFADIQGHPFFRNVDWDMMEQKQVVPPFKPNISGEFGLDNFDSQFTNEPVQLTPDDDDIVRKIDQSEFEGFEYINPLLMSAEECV"}, "EphA3(h)": {"target": "T2, EphA3(h) (Homo sapiens, UniProt P29320)", "T2 sequence (P29320 21-983)": "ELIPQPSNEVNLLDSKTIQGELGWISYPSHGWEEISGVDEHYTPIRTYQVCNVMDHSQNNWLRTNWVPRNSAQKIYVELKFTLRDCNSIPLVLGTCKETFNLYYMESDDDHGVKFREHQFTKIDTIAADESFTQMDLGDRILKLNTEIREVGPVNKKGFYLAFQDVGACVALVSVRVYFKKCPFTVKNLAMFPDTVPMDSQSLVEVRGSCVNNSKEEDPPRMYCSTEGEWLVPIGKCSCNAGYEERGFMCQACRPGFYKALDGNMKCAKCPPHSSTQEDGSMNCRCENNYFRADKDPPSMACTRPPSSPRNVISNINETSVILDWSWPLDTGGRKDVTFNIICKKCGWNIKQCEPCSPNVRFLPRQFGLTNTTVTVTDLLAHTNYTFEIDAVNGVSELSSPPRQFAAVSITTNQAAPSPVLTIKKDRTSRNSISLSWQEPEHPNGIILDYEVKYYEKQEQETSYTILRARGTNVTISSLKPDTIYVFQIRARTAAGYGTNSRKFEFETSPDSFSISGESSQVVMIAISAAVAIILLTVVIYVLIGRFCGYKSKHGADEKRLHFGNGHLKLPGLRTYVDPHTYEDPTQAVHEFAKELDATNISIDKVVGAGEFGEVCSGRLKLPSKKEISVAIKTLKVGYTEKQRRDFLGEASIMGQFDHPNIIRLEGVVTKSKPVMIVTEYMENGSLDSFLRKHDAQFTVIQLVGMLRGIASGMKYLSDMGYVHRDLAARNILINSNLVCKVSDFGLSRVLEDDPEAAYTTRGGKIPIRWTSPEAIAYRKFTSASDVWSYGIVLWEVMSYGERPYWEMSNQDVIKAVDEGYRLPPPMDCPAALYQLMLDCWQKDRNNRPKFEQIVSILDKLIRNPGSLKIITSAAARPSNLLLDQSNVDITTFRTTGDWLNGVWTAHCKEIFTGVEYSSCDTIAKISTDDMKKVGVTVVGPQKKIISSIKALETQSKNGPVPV"}, "IKKα(h)": {"target": "T3, IKKα(h) (Homo sapiens, UniProt O15111)", "T3 sequence (O15111 1-745)": "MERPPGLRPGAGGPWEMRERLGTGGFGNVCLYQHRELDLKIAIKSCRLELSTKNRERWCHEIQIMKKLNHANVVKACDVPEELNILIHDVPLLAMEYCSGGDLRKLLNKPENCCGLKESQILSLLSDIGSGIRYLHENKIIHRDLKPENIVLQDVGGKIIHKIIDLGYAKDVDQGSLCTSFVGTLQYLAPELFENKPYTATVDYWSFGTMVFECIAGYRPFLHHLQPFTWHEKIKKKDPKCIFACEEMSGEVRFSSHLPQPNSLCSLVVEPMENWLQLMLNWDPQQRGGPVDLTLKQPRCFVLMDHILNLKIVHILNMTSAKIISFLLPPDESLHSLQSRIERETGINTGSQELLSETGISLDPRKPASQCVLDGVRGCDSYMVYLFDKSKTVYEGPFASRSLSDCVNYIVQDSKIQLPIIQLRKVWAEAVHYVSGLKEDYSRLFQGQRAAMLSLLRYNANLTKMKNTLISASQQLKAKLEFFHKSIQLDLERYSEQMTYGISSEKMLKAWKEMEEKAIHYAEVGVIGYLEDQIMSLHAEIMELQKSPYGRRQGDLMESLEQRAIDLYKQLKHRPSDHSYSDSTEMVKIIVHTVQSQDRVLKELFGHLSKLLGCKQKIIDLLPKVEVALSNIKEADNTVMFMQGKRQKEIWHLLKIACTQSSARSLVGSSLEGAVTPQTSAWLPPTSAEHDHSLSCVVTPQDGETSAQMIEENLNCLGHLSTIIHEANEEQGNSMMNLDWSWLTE"}}, "data": [{"sequence": "YARAAARQARAKALNRQLGVA [MMI-0200]", "values": [{"measurement": "% activity", "setting": "CK2(h)", "result": 83, "unit": "%"}, {"measurement": "% activity", "setting": "LOK(h)", "result": 67, "unit": "%"}, {"measurement": "% activity", "setting": "MAPKAP-K2(h)", "result": 35, "unit": "%"}, {"measurement": "% activity", "setting": "mTOR/FKBP12(h)", "result": 118, "unit": "%"}, {"measurement": "% activity", "setting": "PAK4(h)", "result": 98, "unit": "%"}, {"measurement": "% activity", "setting": "PKCι(h)", "result": 97, "unit": "%"}]}, {"sequence": "FAKLAARLYRKALARQLGVAA [MMI-0300]", "values": [{"measurement": "% activity", "setting": "CK2(h)", "result": 90, "unit": "%"}, {"measurement": "% activity", "setting": "EphA3(h)", "result": 6, "unit": "%"}, {"measurement": "% activity", "setting": "IKKα(h)", "result": 93, "unit": "%"}, {"measurement": "% activity", "setting": "LOK(h)", "result": 37, "unit": "%"}, {"measurement": "% activity", "setting": "MAPKAP-K2(h)", "result": 5, "unit": "%"}, {"measurement": "% activity", "setting": "mTOR/FKBP12(h)", "result": 145, "unit": "%"}, {"measurement": "% activity", "setting": "PAK4(h)", "result": 94, "unit": "%"}, {"measurement": "% activity", "setting": "PKCι(h)", "result": 68, "unit": "%"}]}, {"sequence": "KAFAKLAARLYRKALARQLGVAA [MMI-0400]", "values": [{"measurement": "% activity", "setting": "CK2(h)", "result": 101, "unit": "%"}, {"measurement": "% activity", "setting": "EphA3(h)", "result": 12, "unit": "%"}, {"measurement": "% activity", "setting": "IKKα(h)", "result": 87, "unit": "%"}, {"measurement": "% activity", "setting": "LOK(h)", "result": 18, "unit": "%"}, {"measurement": "% activity", "setting": "MAPKAP-K2(h)", "result": 5, "unit": "%"}, {"measurement": "% activity", "setting": "mTOR/FKBP12(h)", "result": 125, "unit": "%"}, {"measurement": "% activity", "setting": "PAK4(h)", "result": 89, "unit": "%"}, {"measurement": "% activity", "setting": "PKCι(h)", "result": 46, "unit": "%"}]}, {"sequence": "HRRIKAWLKKIKALARQLGVAA [MMI-0500]", "values": [{"measurement": "% activity", "setting": "CK2(h)", "result": 93, "unit": "%"}, {"measurement": "% activity", "setting": "EphA3(h)", "result": 33, "unit": "%"}, {"measurement": "% activity", "setting": "IKKα(h)", "result": 50, "unit": "%"}, {"measurement": "% activity", "setting": "LOK(h)", "result": 7, "unit": "%"}, {"measurement": "% activity", "setting": "MAPKAP-K2(h)", "result": 9, "unit": "%"}, {"measurement": "% activity", "setting": "mTOR/FKBP12(h)", "result": 140, "unit": "%"}, {"measurement": "% activity", "setting": "PAK4(h)", "result": 86, "unit": "%"}, {"measurement": "% activity", "setting": "PKCι(h)", "result": 7, "unit": "%"}]}]}
